From patent publication US20260151494A1 (ARO BIOTHERAPEUTICS, published 2026)

How the values were obtained:
[1] = target: T1, human CD71 extracellular domain (CD71-ECD) (human, UniProt P02786 89-760); assay: primary ELISA, RLU ratio to HSA
T1 construct: also called hCD71; human CD71-ECD

[2] = target: T1, human CD71 extracellular domain …; assay: primary ELISA; also: test concentration or dose not given here

T1 sequence (P02786 89-760): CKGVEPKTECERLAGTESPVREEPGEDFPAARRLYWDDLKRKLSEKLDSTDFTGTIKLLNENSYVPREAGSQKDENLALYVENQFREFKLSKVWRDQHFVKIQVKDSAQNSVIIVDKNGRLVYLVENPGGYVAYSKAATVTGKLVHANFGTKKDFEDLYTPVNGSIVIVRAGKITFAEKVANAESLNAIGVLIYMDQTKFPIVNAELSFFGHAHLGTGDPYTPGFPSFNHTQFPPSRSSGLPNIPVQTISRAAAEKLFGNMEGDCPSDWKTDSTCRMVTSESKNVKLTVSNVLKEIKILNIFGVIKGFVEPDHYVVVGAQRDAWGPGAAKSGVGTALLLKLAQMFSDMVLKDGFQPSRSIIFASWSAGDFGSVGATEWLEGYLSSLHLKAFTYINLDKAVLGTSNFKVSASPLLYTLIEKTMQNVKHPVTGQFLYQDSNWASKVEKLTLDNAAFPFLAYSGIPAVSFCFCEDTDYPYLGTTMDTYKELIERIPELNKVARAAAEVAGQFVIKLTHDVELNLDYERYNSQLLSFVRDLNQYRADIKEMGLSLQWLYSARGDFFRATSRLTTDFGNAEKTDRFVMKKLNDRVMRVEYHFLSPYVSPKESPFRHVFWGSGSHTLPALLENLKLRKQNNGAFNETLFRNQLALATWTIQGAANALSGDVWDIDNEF

Binder	hCD71:HSA [1]	RLU [2] [RLU]
CD71-binding FN3 domain SEQ ID NO: 310 (designed binder) MSLPAPKNLVVSRVTEDSARLSWTAPDAAFDSFEIDYGEYSQAGEAIGLLVPGSERSYDLTGLKPGTEYAVWIGGVKGGFFSTPLEADFTT	77	2.22e+06
CD71-binding FN3 domain SEQ ID NO: 301 (designed binder) MSLPAPKNLVVSRVTEDSARLSWTTPDAAFDSFEIGYFENLYLGEAIVLTVPGSERSYDLTGLKPGTEYWVQIGGVKGGNWSAPLSAIFTT	152	3.19e+06
CD71-binding FN3 domain SEQ ID NO: 307 (designed binder) MSLPAPKNLVVSRVTEDSARLSWTAPDAAFNSFEIGYFENLYLGEAIVLTVPGSERSYDLTGLKPGTEYWVQIGGVKGGTFSAPLSAIFTT	50	3.75e+06
CD71-binding FN3 domain SEQ ID NO: 315 (designed binder) MSLPAPKNLVVSRVTEDSARLSWTAPDAAFDSFEIGYFENLYLGEAIVLTVPGSERSYDLTGLKPGTEYWVQIGGVKGGNWSAPLSAISTT	41	2.49e+06
CD71-binding FN3 domain SEQ ID NO: 319 (designed binder) MSLPAPKNLVVSRVTEDSARLSWTAPGAAFDSFEIGYFENLYLGEAIVLTVPGSERSYDLTGLKPGTEYWVQIGGVKGGVWSVPLSAIFTT	137	3.35e+06
CD71-binding FN3 domain SEQ ID NO: 311 (designed binder) MSLPAPKNLVVSRVTEDSARLSWTAPDAAFDSFEIGYWENAYKGEAIVLTVPGSERSYDLTGLKPGTEYVVFIGGVKGGSWSNPLSAIFTT	133	2.38e+06
CD71-binding FN3 domain SEQ ID NO: 309 (designed binder) MSLPAPENLVVSRVTEDSARLSWTAPDAAFDSFEIGYFENLYLGEAIVLTVPGSERSYDLTGLKPGTEYWVQIGGVKGGNWSAPLSAIFTT	287	3.57e+06
CD71-binding FN3 domain SEQ ID NO: 313 (designed binder) MSLPAPKNLVVSRVTEDSARLSWTAPDAAFDSFEIAYFENDWAGEAIVLTIPGSERSYDLTGLKPGTEYWVQIGGVKGGNWSAPLSAIFTT	480	2.97e+06
CD71-binding FN3 domain SEQ ID NO: 316 (designed binder) MSLPAPKNLVISRVTEDSARLSWTAPDAAFDSFEIGYFENLYLGEAIVLTVPGSERSYDLTGLKPGTEYWVQIGGVKGGNWSAPLSAIFTT	301	3.03e+06
CD71-binding FN3 domain SEQ ID NO: 304 (designed binder) MSLPAPKNLVVSRVTEDSARLSWTAPDAAFDSFEIGYFENLYLGEAIVLTVPGSERSYDLTGLKPGTEYVVFIGGVKGGVWSVPLSAIFTT	274	3.39e+06
CD71-binding FN3 domain SEQ ID NO: 308 (designed binder) MSLPAPKNLVVSRVTEDSARMSWTTPDAAFDSFEIGYFENLYLGEAIVLTVPGSERSYDLTGLKPGTEYWVQIGGVKGGNWSAPLSAIFTT	127	3.55e+06
CD71-binding FN3 domain SEQ ID NO: 306 (designed binder) MSLPAPKNLVVSRVTEDSARLSWTAPDAAFDSFEIGHFENLYLGEAIVLTVPGSERSYDLTGLKPGIEYWVQIGGVKGGVWSVSLSAIFTT	79	1.17e+06
CD71-binding FN3 domain SEQ ID NO: 305 (designed binder) MSLPAPKNLVVSRVTEDSARLSWTAPDAAFDSFEIAYFEQTYTGEAIVLTVPGSERSYDLTGLKPGTEYWVQIGGVKGGNWSAPLSAIFTT	315	3.62e+06
CD71-binding FN3 domain SEQ ID NO: 312 (designed binder) MSLPAPKNLVVSRVTEDSARLSWTAPDAAFDSFEIGYFENLYLGEAIVLTIPGSERSYDLTGLKPGTEYWVQIGGVKGGNWSAPLSAIFTT	324	3.1e+06
CD71-binding FN3 domain SEQ ID NO: 314 (designed binder) MGSLPAPKNLVVSRVTEDSARLSWTAPDAAFDSFEIGYFENLYLGEAIVLTVPGSERSYDLTGLKPGTEYWVQIGGVKGGNWSAPLSAIFTT	256	3.15e+06
CD71-binding FN3 domain SEQ ID NO: 303 (designed binder) MSLPAPKNLVVSRVTEDSARLSWTAPDAAFDSFWIEYWEGWKSGEAIVLTVPGSERSYDLTGLKPGTEYRVHIWGVKGGIVSWPLSAIFTT	212	1.86e+06

Further lines, results first:

hCD71:HSA [1]	RLU [2] [RLU]	Binder
79	1.5e+06	CD71-binding FN3 domain SEQ ID NO: 326 (designed binder) MSLPAPKNLVVSRVTEDSARLSWTAPDAAFDSFEIGYWENAYKGEAIVLTVPGSERSYDLTGLKPGTEYWVQIGGVKGGVWSTPLSAIFTT
171	3.38e+06	CD71-binding FN3 domain SEQ ID NO: 322 (designed binder) MSLPAPKNLVVSRVTEDSARLSWTAPDAAFDSFEIGYFEITRYGEAIILFVPGSERSYDLTGLKPGTEYWVQIGGVKGGNWSAPLSAIFTT
54	2.54e+06	CD71-binding FN3 domain SEQ ID NO: 330 (designed binder) MSLPAPKNLVVSRVTEDSARLSWTAPDAAFDSFEIGYFENLYLGEAIVLTVPGSERSYDLTGLKPGTEYWVQIGGVKGGNWSAPLSAIVTT
114	2.43e+06	CD71-binding FN3 domain SEQ ID NO: 325 (designed binder) MSLPAPKNLVVSRVTEDSARLSWTAPDAAFDSFEIGYFENLYLGEAIVLTVPGSERSYDLTGLKPGTEYWVQIGGVKGGNWSAPLSEIFTT
294	3.13e+06	CD71-binding FN3 domain SEQ ID NO: 324 (designed binder) MSLPAPKNLVVSRITEDSARLSWTAPDAAFDSFEIGYFENLYLGEAIVLTVPGSERSYDLTGLKPGTEYWVQIGGVKGGNWSAPLSAISTT
62	2.75e+06	CD71-binding FN3 domain SEQ ID NO: 323 (designed binder) MSLPAPKNLVVSRVTEDSARLSWTAPDAAFDSFEIGYFENLYLGEAIVLTVPGSERSYDLTGLKPGTEYWVQIGGVKGGNWSGPLSAIFTT
25	2.18e+06	CD71-binding FN3 domain SEQ ID NO: 328 (designed binder) MSLPAPKNLVVSRVTEDSARLSWTAPDAAFDSFEIGYFGNLYLGEAIVLTVPGSERSYDLTGLKPGTEYWVQIGGVKGGNWSAPLSAIFTT
90	3.28e+06	CD71-binding FN3 domain SEQ ID NO: 329 (designed binder) MSLPAPKNLVVSRVTEDSARLSWTAPDAAFDSFDIGYFEATYYGEAIVLTVPGSERSYDLTGLKPGTEYRVWIGGVKGGYYSNPLSAIFTT
172	2.36e+06	CD71-binding FN3 domain SEQ ID NO: 320 (designed binder) MSLPVPKNLVVSRVTEDSARLSWTAPDAAFDSFEIGYWENAYKGEAIVLTVPGSERSYDLTGLKPGTEYWVQIGGVKGGNWSAPLSAIFTT
143	2.66e+06	CD71-binding FN3 domain SEQ ID NO: 327 (designed binder) MSLPAPKNLVVSRVTEDSARLSWTAPDAAFDSFEIGYWENAYKGEAIVLTVPGSERSYDLTGLKPGTEYWVQIGGVKGGNWSAPLSAIFTT
